Test results published in publication PMC4012256.

Columns and labels:
[1] = biological target: αVβ3(N339S) transiently expressed on HEK293T cells (human) (UniProt P06756)
[2] = biological target: wild-type αVβ3 stably expressed in K562 cells (K562-αVβ3) (human) (UniProt P06756); experiment: flow cytometry on cells
[3] = biological target: αVβ3(N339S) transiently expressed on HEK293T cells (human) (UniProt P06756); experiment: flow cytometry on cells

Sequence of 10th type III RGD-domain of wild-type fibronectin (wtFN10) (domain or fragment) (P02751 45-2432): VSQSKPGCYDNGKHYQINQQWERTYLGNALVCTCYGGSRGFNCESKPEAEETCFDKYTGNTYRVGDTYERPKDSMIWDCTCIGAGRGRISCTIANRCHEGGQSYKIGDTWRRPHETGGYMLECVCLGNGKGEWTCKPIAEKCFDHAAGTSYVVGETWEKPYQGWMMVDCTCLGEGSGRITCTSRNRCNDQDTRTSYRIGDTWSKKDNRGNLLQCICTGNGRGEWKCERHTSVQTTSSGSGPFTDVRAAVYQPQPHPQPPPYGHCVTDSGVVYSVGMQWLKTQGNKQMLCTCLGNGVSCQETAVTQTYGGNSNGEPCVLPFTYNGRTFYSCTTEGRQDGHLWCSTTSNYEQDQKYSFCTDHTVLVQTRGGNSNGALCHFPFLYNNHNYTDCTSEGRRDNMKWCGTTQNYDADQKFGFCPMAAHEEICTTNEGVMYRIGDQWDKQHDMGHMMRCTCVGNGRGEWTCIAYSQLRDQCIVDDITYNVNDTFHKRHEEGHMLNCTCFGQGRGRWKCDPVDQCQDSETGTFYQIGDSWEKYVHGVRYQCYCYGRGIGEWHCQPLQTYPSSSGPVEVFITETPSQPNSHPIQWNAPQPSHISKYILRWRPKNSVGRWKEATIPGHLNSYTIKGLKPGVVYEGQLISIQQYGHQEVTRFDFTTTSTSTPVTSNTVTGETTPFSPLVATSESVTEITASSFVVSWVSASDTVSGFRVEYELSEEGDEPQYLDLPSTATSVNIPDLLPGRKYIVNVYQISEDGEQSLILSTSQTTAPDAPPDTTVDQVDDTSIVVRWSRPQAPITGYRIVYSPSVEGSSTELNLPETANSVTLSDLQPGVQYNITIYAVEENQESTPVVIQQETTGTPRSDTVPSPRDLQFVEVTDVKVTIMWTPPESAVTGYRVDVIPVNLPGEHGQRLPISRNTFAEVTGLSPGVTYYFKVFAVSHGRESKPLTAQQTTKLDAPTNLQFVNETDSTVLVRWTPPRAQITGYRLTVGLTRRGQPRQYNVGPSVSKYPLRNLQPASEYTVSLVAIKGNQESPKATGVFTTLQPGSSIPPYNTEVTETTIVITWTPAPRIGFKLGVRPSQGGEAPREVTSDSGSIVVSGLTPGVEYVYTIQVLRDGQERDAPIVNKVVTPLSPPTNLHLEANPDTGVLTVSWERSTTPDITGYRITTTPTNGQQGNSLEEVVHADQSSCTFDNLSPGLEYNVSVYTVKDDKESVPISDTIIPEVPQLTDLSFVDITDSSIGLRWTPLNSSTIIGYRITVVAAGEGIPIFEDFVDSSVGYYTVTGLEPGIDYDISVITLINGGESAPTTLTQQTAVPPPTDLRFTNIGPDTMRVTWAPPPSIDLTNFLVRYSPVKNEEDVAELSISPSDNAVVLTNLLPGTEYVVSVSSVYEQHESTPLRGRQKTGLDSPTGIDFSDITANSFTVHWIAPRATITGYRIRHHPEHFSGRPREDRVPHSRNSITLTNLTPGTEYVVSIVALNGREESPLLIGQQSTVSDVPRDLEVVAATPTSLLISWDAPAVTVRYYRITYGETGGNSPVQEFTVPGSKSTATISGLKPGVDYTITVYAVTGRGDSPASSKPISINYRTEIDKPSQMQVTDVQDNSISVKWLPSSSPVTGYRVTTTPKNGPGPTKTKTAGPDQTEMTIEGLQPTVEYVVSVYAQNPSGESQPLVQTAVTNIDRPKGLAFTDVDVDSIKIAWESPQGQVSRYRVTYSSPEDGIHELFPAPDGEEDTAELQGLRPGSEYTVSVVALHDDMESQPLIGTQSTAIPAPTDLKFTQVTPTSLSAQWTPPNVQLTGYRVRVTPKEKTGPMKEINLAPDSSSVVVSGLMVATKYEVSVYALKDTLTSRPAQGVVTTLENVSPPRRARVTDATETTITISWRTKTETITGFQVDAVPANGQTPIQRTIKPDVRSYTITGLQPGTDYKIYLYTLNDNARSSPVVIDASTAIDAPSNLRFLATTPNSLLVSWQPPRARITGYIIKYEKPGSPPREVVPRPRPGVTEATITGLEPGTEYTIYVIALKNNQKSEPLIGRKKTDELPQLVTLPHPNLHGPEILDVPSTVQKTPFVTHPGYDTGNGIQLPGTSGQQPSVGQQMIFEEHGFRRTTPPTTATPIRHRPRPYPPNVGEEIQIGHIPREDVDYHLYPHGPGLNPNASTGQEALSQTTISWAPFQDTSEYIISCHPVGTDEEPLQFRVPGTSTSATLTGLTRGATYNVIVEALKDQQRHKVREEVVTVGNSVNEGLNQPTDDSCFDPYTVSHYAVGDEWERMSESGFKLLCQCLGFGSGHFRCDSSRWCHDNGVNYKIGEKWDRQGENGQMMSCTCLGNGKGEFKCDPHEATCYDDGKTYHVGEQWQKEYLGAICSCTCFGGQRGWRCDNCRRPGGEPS
Sequence of αVβ3(N339S) transiently expressed on HEK293T cells (human) (P06756 31-1048, chain 1 of 2): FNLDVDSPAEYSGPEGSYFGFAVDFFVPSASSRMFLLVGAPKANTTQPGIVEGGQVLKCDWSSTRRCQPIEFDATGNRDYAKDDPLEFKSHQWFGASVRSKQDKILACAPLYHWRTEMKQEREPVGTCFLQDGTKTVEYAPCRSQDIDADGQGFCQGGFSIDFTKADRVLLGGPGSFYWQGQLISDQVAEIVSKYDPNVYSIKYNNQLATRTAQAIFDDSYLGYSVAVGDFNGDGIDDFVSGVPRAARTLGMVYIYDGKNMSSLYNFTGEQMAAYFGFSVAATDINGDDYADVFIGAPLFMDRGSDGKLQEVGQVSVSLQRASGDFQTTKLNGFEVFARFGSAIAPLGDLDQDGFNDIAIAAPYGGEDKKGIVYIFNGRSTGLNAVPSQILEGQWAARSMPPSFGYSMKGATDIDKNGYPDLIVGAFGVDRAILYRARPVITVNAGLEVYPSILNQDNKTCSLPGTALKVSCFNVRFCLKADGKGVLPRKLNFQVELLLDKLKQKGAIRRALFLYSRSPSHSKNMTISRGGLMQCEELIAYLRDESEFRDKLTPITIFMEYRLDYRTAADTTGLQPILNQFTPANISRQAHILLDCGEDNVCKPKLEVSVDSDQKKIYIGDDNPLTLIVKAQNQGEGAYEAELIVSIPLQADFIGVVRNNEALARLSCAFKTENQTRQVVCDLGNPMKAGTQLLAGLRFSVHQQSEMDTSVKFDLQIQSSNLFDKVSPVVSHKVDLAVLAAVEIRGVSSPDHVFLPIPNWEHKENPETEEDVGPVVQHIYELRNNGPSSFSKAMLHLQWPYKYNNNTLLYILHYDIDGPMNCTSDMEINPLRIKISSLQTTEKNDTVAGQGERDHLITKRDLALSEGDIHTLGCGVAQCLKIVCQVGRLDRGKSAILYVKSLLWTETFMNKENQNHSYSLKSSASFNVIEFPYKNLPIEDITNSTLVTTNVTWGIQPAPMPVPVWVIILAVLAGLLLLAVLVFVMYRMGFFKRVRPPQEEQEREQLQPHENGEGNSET
Sequence of αVβ3(N339S) transiently expressed on HEK293T cells (human) (P05106 27-788 N339S, chain 2 of 2, further chain): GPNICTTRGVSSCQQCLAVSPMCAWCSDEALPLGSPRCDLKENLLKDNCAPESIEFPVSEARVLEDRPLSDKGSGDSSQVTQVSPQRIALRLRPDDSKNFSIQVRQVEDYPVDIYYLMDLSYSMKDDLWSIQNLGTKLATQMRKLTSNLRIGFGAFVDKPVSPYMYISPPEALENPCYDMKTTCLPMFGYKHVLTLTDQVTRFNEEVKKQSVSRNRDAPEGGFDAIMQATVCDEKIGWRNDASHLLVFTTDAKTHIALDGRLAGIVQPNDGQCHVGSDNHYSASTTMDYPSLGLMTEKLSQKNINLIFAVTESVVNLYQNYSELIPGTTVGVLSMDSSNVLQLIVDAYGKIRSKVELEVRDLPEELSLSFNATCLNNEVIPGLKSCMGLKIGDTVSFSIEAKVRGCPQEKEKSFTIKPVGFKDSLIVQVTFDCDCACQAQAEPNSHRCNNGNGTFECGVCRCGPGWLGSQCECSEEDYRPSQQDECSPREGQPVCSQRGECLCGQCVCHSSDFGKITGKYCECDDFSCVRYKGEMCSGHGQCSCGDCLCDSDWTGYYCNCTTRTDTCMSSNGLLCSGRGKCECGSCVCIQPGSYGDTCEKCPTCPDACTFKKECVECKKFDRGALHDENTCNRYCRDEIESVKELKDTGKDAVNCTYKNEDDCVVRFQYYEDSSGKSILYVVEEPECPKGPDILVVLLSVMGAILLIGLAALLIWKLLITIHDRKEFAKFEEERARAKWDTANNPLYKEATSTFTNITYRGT
Sequence of wild-type αVβ3 stably expressed in K562 cells (K562-αVβ3) (human) (P06756 31-1048, chain 1 of 2): as the sequence (P06756 31-1048, chain 1 of 2) above
Sequence of wild-type αVβ3 stably expressed in K562 cells (K562-αVβ3) (human) (P05106 27-788, chain 2 of 2, further chain): as the sequence (P05106 27-788 N339S, chain 2 of 2, further chain) above, with S313N counted along it

AP5 epitope expression (flow cytometry, HEK293T) [1]: 2 fold
fold increase of binding (MFI) in Mn2+ over Ca2+-Mg2+ [2]: 10 fold
fold increase of binding by the N339S mutation over wild-type αVβ3 [3]: 6 fold
Substance: 10th type III RGD-domain of wild-type fibronectin (wtFN10) (domain or fragment)
